In the nanobody polyreactivity screen of Harvey et al. (2022):

Test: yeast display, Sf9 membrane polyspecificity reagent, FACS + sequencing; frameworks hold sequencing errors
In short: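 A nanobody's polyreactivity label depends on the gate it was sorted from. Yeast display cells were stained with 10% biotinylated, detergent-solubilized Sf9 membrane reagent for 1 hour at 4 °C, enriched on streptavidin microbeads and sorted by FACS. The low and high (top ~1%) gates were set on anti-HA fluorescence for expression and streptavidin fluorescence for reagent binding.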

Sequence: QVQRVESGGGLVQAGGSLRLSCAASGSTFSIYAMGLYRQEPGKERELVAAISFSDDSTYYADSVKGRFTISRDNAKNTVYLQMNSLNPEDTEVYYCAAEGYWGEPFDYDGALEYWGQGTQVTVSS
- polyreactivity (PSR sort gate): high polyreactivity

Sequence: QVQRVESGGGLVQAGGSLRLSCADSGGTFGSYAKGCSSQAPGQDRELVDAIDYSGADTYYADSVKGRFTISRDNAKNTVYLQMNSLKREDTAVFSCNADPLPYDGFYDYDYWGQGTQVTVSS
- polyreactivity (PSR sort gate): low polyreactivity

Sequence: QVQRVESGGGLVQAGGSLRLSSAGSGSIFNIYTMGWYRQAPGKERELVAAISYGGGSTYADSVKGRLTISRDNAKNTVYLQMNSLKPEDTAVYYCNAKRTYHWRWYQYDYWGQGTQVTVSS
- polyreactivity (PSR sort gate): high polyreactivity

Sequence: QVQRVESGGGLVQAGGSLRLSSASSGFTFRSYAMGWYRQEPGKERELVAVIASSGGSTYYADSVKGRFTFSRDNAKNTVYLQMNSLKPEDTAVYYCNRRPATRAYLYDYWGQGTQVTVSW
- polyreactivity (PSR sort gate): high polyreactivity

Sequence: QVQRVESGGGLVQAGGSLRLTSAASGSTFGTNAMGWYRQAPGTERELVATISKSGGSTYYADSVKGRFTISRDNAKNTVYLQMNSLKPEANAVYYCARRYRDYGRYGYWGQGTEVTVSS
- polyreactivity (PSR sort gate): high polyreactivity

Sequence: QVQRVESGGGLVQAGGTLRLSCAASGRIFWYNAMGWSRQAPGKERELVAVISTRGGRTYYADSVKGRFTISRDNAKNTVYLQMNSLKPEDTAVYYCAAEFLNKAVGGVTSIYDSWGQGTQVTVSS
- polyreactivity (PSR sort gate): low polyreactivity

Sequence: QVQRVESGGGLVQARASLRLSCAASGSIFPHYAMGWYRQAPGKERDLVATIRSRSGSTYYADSVKGRFTISRDNAKNTVYLQMNSLKPEDTAVYYCAARYYKERYWGQGTQVTVSS
- polyreactivity (PSR sort gate): low polyreactivity

Sequence: QVQRVESGGGLVQEGRSLRLSCAASGFIFSVYAMGWYRQAQGKERELVAAMTWNGGRTYYADSVKGRFRISRDHAKNTVYLQMNSVKPEDTAVYYCAADSRGALNSVYRYGSIVEGDYWGQGTQVTVSS
- polyreactivity (PSR sort gate): low polyreactivity

Sequence: QVQRVESGGRLVQAGGSLRLSCAACGSTFPGNAMGWYRQAPGKERELVAAISSSGGSTDYADSVKGRFTCSRDNAKNTVYLQLNRLKPEDTAVYSCATKYRFCTYRDIAYPYDYWGQGPQVTVSS
- polyreactivity (PSR sort gate): low polyreactivity

Sequence: QVQRVESGGRLVQAGGSLRLSCAASGSTFPSYAMGWSRQAPGKERELVAAISWSGGTTYYADSVKGRFTISRDNAKNTVYLQMNSLKPEDTAVYYCAAGGRRQAYGRRDYWGQGNQVTVSS
- polyreactivity (PSR sort gate): high polyreactivity

Sequence: QVQRVESGVGIVQAGGSLRLSSAASGFIFSRYAMGWYRQAPGNERQLVAAIRFSGSITYYADSVKGRFTISRDNAKNTVYLQMNSLKPEDTAVYYCAAPLTFFKRVYYWGQGTQLTVSS
- polyreactivity (PSR sort gate): high polyreactivity

Sequence: QVQRVETGGGLVQAGGSLRLSCAASGRTIRVYAMGWYRQPPGKETELVPAISGSGGSTYYADSVKGRFTISRDNAKNTVYLQMNSLKPEDTAVYFCYAASWTFQTTPKYDYWGQGTLVTVSS
- polyreactivity (PSR sort gate): high polyreactivity

Sequence: QVQVVDSGGGLVQAGGSLRLSCAASGSIFYVYAMGWYRQAPGKVWEFVAAIRWFSGSTYYADSVKWRYTISRDNAKNTVYLQMNSLKPEDTAVYYCAARKYKQGRFKYDYWGQGTQVTVSS
- polyreactivity (PSR sort gate): high polyreactivity

Sequence: QVQVVESGGGIVKAGGSLRLSCAPSGSTFYYYAMGWYRQAPRKERELVATISWSGDSTYADSVKGRFTISRDNSKNTVYLQLTSLKPEDTAVYYCATCGDWWGFRYDYWGQCTQVTVSS
- polyreactivity (PSR sort gate): low polyreactivity

Sequence: QVQVVESGGGLVHAVCSLRLSCAASGRIFSTYALGLYRPAPGKERELVAAISSSGARTYYADSVKGRFTISRDNAKNNVYLQMNSLKPEDTSVYYCAAPPYNRPGYGYDYWGQGTQVTVSS
- polyreactivity (PSR sort gate): high polyreactivity

Sequence: QVQVVESGGGLVQAGCSLRLSCAASGSTFQANDMGLYRQAPGKERELVAAISTGGSSTYYADSVKGRFTISRDNEKNTFFLQMNSLKPEDTAVYYCAVDGLGGREGYWGQGTQVTVSS
- polyreactivity (PSR sort gate): high polyreactivity

Sequence: QVQVVESGGGLVQAGGSLRLICAASGRIFDSNAMGWYRQEPVKERELVARIDPGDDTNSADSVKGRFTISRDNAKNTLYLQMNSLKPEDTAVYYCATDPDYVLYRTAYYEYDYWGQGTQVTVSS
- polyreactivity (PSR sort gate): low polyreactivity

Sequence: QVQVVESGGGLVQAGGSLRLSCAASGFTFPYYALGLYRQAPGKERELVAAITTGGSTYYSDSVKGRFTISRDNAKNTVYLQMNSLKPEDTAVYYCATGPSLWYRSSFRGEGDYWGQGTQVTVSS
- polyreactivity (PSR sort gate): low polyreactivity

Sequence: QVQVVESGGGLVQAGGSLRLSCAASGLIFVYYAMGWYRQAPGKERELVAGITRGGGTNYADSVKGRFTISRDNAKNSFYLQMNSLKPEDTAVYYCAADDLPGMDYWGQGTQVTVSS
- polyreactivity (PSR sort gate): low polyreactivity

Sequence: QVQVVESGGGLVQAGGSLRLSCAASGRIFNRNAMGWYRQAPGKERELVAAITRGGRTNYADSVKGRFRISRDNAQNTVYLQMNSLKPEDTAVYYCAAAYYGSHGRYDYWGQGTQVTVSS
- polyreactivity (PSR sort gate): high polyreactivity

Sequence: QVQVVESGGGLVQAGGSLRLSCAASGRIFYVYAMGWYRQAPGKERELVAAITISGGSTYYADSVKGRFTISRDNAKNTVYLQMNSLKPEDTAVYYCATDRSSHWYDYWGQGTQVTVSS
- polyreactivity (PSR sort gate): low polyreactivity

Sequence: QVQVVESGGGLVQAGGSLRLSCAASGRTFYPYAMGWYRQAPGKERELVAAISSSGGSTYYADSVKGRFTISRDNAKNTDYLPMNSLKPEDTAVYYCAAVASKYKYTGGMDYWGQGTQVTVSS
- polyreactivity (PSR sort gate): high polyreactivity

Sequence: QVQVVESGGGLVQAGGSLRLSCAASGSIFDRNAMGWYRKAPGKERELVAGISRSGGSTNYADSVKGRFTISRDNAKNPVYLQMNSLNPEDTAVYYCAASRVVWVGRPWYQVRGDYWGQGTQVTVSS
- polyreactivity (PSR sort gate): high polyreactivity

Sequence: QVQVVESGGGLVQAGGSLRLSCAASGSIFPVYAMGWYRQAPGKERELVAAISSGGSTNYADSVKGRFTISRDNAKNTVYLQRNSLKPEDTAVYYSARRWYYVRHGYWGQGTQVTVSS
- polyreactivity (PSR sort gate): high polyreactivity

Sequence: QVQVVESGGGLVQAGGSLRLSCAASGSIFRDNAMGCYRQAPGKERELVASIRSSGGRTYYADSVKGRFTISRDNAKNTVYLQMNSLKPEDTAVYYCARRWYPVTPYARMYYWGQGTQVTVSS
- polyreactivity (PSR sort gate): low polyreactivity

Sequence: QVQVVESGGGLVQAGGSLRLSCAASGSTFEYNAMGWYRQAPGKERELVASSTNYADSVKGRFTISRDNATNTVYLKMNSLKPEDTAVYYCAREQGVNRNHDYWGQGTQVTVSS
- polyreactivity (PSR sort gate): low polyreactivity

Sequence: QVQVVESGGGLVQAGGSLRLSCAASGSTFSWYAIGWYIQAPGKDRELVARISSGDRTNYADSVKGRFTITRDNAKNNVYLEMNSQKPEDTAVYYCNADYGQPSYYDDGDYWGQGTQVTVSS
- polyreactivity (PSR sort gate): low polyreactivity

Sequence: QVQVVESGGGLVQAGGSLRLSCAGSGSIFYFYAMGWSRQAPGKARELVATITSGGRTYYADSVKGRFTISRDNAKNTVYLQMISLKPEDTAVYYCNSRPVSYRYSSYIFNYWGQGTQVTVSS
- polyreactivity (PSR sort gate): high polyreactivity

Sequence: QVQVVESGGGLVQEGGSLRLSCSASGRIFGVNAMGWYRKAPGKERELFAAISRSGGSTYYADSVKGRFTISRDNEKNTVYLQMNSLNPEDTAVYYCAAGGRRYDDDYWGQGTQVTVSS
- polyreactivity (PSR sort gate): high polyreactivity

Sequence: QVRLLETGGGLVQAGGSLRLSCAPSGSTFTDYDMGWYRPAPGKERELVAAITSGGSTNYADSVKGSFTISRDNAKNTVYLQMNRLKPEDTAVYYCAASYWDTEPGYREYDYWGQGTLVTVSS
- polyreactivity (PSR sort gate): low polyreactivity

Sequence: QVRLQESGGGLVQAGGSLRLSCAASGSISLTYYMDWSRQAPCTVREFVATITAGATTNYADSVKGRFTISRDNAKNTVYPQMNSLKPEDTEVYYSAVRAEHQVTLIYLGQGTQVTVSS
- polyreactivity (PSR sort gate): low polyreactivity
